# Test results from the DeepSol protein solubility set.
# Assay: soluble on expression in E. coli; label from the status in PepcDB or PDB records
row,Sequence,soluble on expression in E. coli
1,MRRLPPWMLGGASTGEAAARNGSQPEAPKTKAEKRPKRVQKTKEKDLNLKSDEPKRVPRKIREEAKRSPEVIQSVTVPEDDDLTVDDLLSFANEYVQRDEEGTRKERERSLSVSETTLVLDETNMTTSSQGGTKDSTAEDMLQLLMGPFYKKR,soluble
2,MRRRQRRQSSNIFHMLTKNQIVELREAFNFMDVNSDTFVDRGDLENFLASIGSPFSESEIDEMMAEGGDSMTYMLFLTMIGERLSCTDSEKSIFNALKEFDDNGDGTIDEKVLREWLTEKGDRMADEDVNLLLRDCVENGRIDCRSLTTKMKYGEIINE,not soluble
3,MRRRSGINTSAVRYCLRKRKDITLLNPIVRKFQYGQHTVTLETGMMARQATAAVMVSMDDTAVFVTVVGQKKAKPGQDFFPLTVNYQERTYAAGRIPGSFFRREGRPSEGETLIARLIDRPIRPLFPEGFVNEVQVIATVVSVNPQVNPDIVAMIGASAALSLSGIPFNGPIGAARVGYINDQYVLNPTQDELKESKLDLVVAGTEAAVLMVESEAELLSEDQMLGAVVFGHEQQQVVIQNINELVKEAGKPRWDWQPEPVNEALNARVAALAEARLSDAYRITDKQERYAQVDVIKSETIATLLAEDETLDENELGEILHAIEKNVVRSRVLAGEPRIDGREKDMIRGLDVRTGVLPRTHGSALFTRGETQALVTATLGTARDAQVLDELMGERTDTFLFHYNFPPYSVGETGMVGSPKRREIGHGRLAKRGVLAVMPDMDKFPYTVRVVSEITESNGSSSMASVCGASLALMDAGVPIKAAVAGIAMGLVKEGDNYVVLSDILGDEDHLGDMDFKVAGSRDGISALQMDIKIEGITKEIMQVALNQAKGARLHILGVMEQAINAPRGDISEFAPRIHTIKINPDKIKDVIGKGGSVIRALTEETGTTIEIEDDGTVKIAATDGEKAKHAIRRIEEITAEIEVGRVYTGKVTRIVDFGAFVAIGGGKEGLVHISQIADKRVEKVTDYLQMGQEVPVKVLEVDRQGRIRLSIKEATEQSQPAAAPEAPAAEQGE,not soluble
4,MRRYASYPTYSSVHPVGLISRVSGASGIGCRMRRYASYPTYSSVHPVGLISRVSGASGIGCRMRRYASYPTYSSVHPVGLISHVSGASGIGCRMRRHPSYPTYSSVHLVGLISRVSDASGIGCRIQSTGVFYFTWLRANRLSSFSSYWLEHHHHHH,not soluble
5,MRSAFRVIRTVREKHACTQCDAIVQAPAPSRPIERGIAGPGLLARVLTSKYAEHTPLYRQSEIYGRQGVELSRSLLSGWVDACCRQLSPLEEALHGYVLTDGKLHADDTPVPVLLPGNKKTKTGRLWTYVRDDRNAGSTLAPAVWFAYSPDRKGIHPQTHLAGFSGVLQADAYAGFNELYRDGRITEAACWAHARRKIHDVHVRTPSALTEEALKRIGELYAIEAEIRGMTAEQRLAERQLKTKPLLKSLESWLREKMKTLSRHSELAKAFAYALNQWPALTYYADDGWAEADNNIAENALRMVSLGRKNYLFFGSDHGGERGALLYSLIGTCKLNGVEPESYLRYVLDVIADWPINRVGELLPWRVALPTE,not soluble
6,MRSKFFSFFTRASRPMKAIPPKIWFETQLKGSGLDKKFQIDELIETQSSVRVFANKKYLPDTETINEALTKVTAVNVSGDKSGYFQNGLPFPNEAGYFEKIPVGHPELLSPIERLTGSKKIVSSHSLVTASGGYPLTNPLLPYRKPIRVSIFSLAGPSFENNYLHYRLFLLDSVQKIIDSPLFSHLHDGLPIQFDEAKKELGEYDTNKLMARIRLGFPYLARFSSGGFYPSFSKSNAIIFLSEAYFRYQLEDVSLLLASVNQTGKETGKAALLKATAVGMGFFAKIDCGYDIQHIIFPYYLRAYKKLLSEHKFPWIAKIEFPIFNEIQQEQFDSIFEDYDGPTKVYRSTRDVLEFREEEIEKYLPAAINPSDAFALTGNEWGYGSVESMIGNNSSIRFDQVHHMNPLILDPSHHVEAQINKDHGVELTVNPRPQSSSSIKL,not soluble
7,MRSQRIVHIVSCHAEGEVGDVIVGGVAAPPGATLWEQSRWIARDQDLRNFVLNEPRGGVFRHANLLVPAKDPRAQMGWIIMEPADTPPMSGSNSLCVATVLLDSGILPMREPLTRLLLEAPGGLIEARAECRDGKAERVEIRNVPSFADRLDAWIEVEGLGSLQVDTAYGGDSFVIADARRLGFALRADEAAELVATGLKITHAANEQLGFRHPTNPDWDHLSFCQLAAPPERRDGVLGANNAVVIRPGKIDRSPCGTGCSARMAVLQAKGQLRVGERFVGRSIIGSEFHCHIESLTELGGRPAILPCLSGRAWITGIHQYLLDPDDPWPQGYRLSDTWPGGHC,not soluble
